# Measured values as given in the array DNA melting data of Ke et al..
# Assay: melting temperature; melt of duplexes
# Conditions: sodium 0.0675 M; strand 1 µM
row,Substance,Tm
1,CGACGTGCCACATGTGCTG+CAGCACATTAGGCACGTCG (((((((((..((((((((+))))))))..))))))))),54.2 °C
2,CGACGTGCGAAATGTGCTG+CAGCACATTATGCACGTCG ((((((((..(((((((((+)))))))))..)))))))),53.6 °C
3,CGACGTGCTGCATGTGCTG+CAGCACATCCAGCACGTCG ((((((((((.((((((((+)))))))).)))))))))),55.9 °C
4,CGACGTGCCCTATGTGCTG+CAGCACATCTTGCACGTCG ((((((((...((((((((+))))))))...)))))))),47.3 °C
5,CGACGTGCAGGATGTGCTG+CAGCACATACGGCACGTCG ((((((((.(.((((((((+)))))))).).)))))))),56.1 °C
6,CGACGTGCTTGATGTGCTG+CAGCACATTATGCACGTCG ((((((((.(.((((((((+)))))))).).)))))))),51.9 °C
7,CGACGTGCTGTATGTGCTG+CAGCACATCACGCACGTCG ((((((((...((((((((+))))))))...)))))))),50.7 °C
8,CGACGTGCACTATGTGCTG+CAGCACATCTTGCACGTCG (((((((((..((((((((+))))))))..))))))))),46.5 °C
9,CGACGTGCGATATGTGCTG+CAGCACATCGTGCACGTCG ((((((((...((((((((+))))))))...)))))))),44.3 °C
10,CGACGTGCCCGATGTGCTG+CAGCACATCTGGCACGTCG (((((((((.(((((((((+))))))))).))))))))),59.1 °C
11,CGACGTGCCCGATGTGCTG+CAGCACATTTCGCACGTCG ((((((((...((((((((+))))))))...)))))))),47.6 °C
12,CGACGTGCTGAATGTGCTG+CAGCACATGCAGCACGTCG ((((((((((.((((((((+)))))))).)))))))))),59.7 °C
13,CGACGTGCTAAATGTGCTG+CAGCACATGTAGCACGTCG ((((((((((.((((((((+)))))))).)))))))))),55.7 °C
14,CGACGTGCATGATGTGCTG+CAGCACATTACGCACGTCG ((((((((.(.((((((((+)))))))).).)))))))),50.6 °C
15,CGACGTGCACCATGTGCTG+CAGCACATAGGGCACGTCG ((((((((.(.((((((((+)))))))).).)))))))),51.5 °C
16,CGACGTGCTCTATGTGCTG+CAGCACATCTAGCACGTCG (((((((((..((((((((+))))))))..))))))))),50.6 °C
17,CGACGTGCAGCATGTGCTG+CAGCACATCGCGCACGTCG ((((((((...((((((((+))))))))...)))))))),51.6 °C
18,CGACGTGCCTGATGTGCTG+CAGCACATGATGCACGTCG ((((((((.(.((((((((+)))))))).).)))))))),49.4 °C
19,CGACGTGCTCCATGTGCTG+CAGCACATAACGCACGTCG ((((((((...((((((((+))))))))...)))))))),47 °C
20,CGACGTGCCGGATGTGCTG+CAGCACATAGCGCACGTCG ((((((((...((((((((+))))))))...)))))))),49.9 °C
21,CGACGTGCCAGATGTGCTG+CAGCACATTTGGCACGTCG ((((((((((.((((((((+)))))))).)))))))))),59.3 °C
22,CGACGTGCTTAATGTGCTG+CAGCACATTACGCACGTCG ((((((((.((((((((((+)))))))))).)))))))),54.8 °C
23,CGACGTGCCACATGTGCTG+CAGCACATTTCGCACGTCG ((((((((.(.((((((((+)))))))).).)))))))),47.3 °C
24,CGACGTGCTCGATGTGCTG+CAGCACATTGGGCACGTCG ((((((((.(.((((((((+)))))))).).)))))))),55.7 °C
25,CGACGTGCAGGATGTGCTG+CAGCACATCAGGCACGTCG ((((((((..(((((((((+)))))))))..)))))))),56.6 °C
26,CGACGTGCGAAATGTGCTG+CAGCACATCCAGCACGTCG ((((((((...((((((((+))))))))...)))))))),50.8 °C
27,CGACGTGCGATATGTGCTG+CAGCACATTATGCACGTCG ((((((((...((((((((+))))))))...)))))))),52.2 °C
28,CGACGTGCGCCATGTGCTG+CAGCACATAAAGCACGTCG ((((((((...((((((((+))))))))...)))))))),53.6 °C
